Data from paper PMC11724075, “Small-molecule-induced ERBB4 activation to treat heart failure” (Nature Communications, 2025).
Where “and” joins values, the source holds several entries; their conditions need not be identical. Identical values can stand only once.

Key:
Erbb4-null mice = assay: Survival of Erbb4-null mice under AngII treatment; assay type: in vivo, mouse; set-up: key to Survival probability in AngII-treated Erbb4-null mice: 0: Survived until end of experiment; 1: Died before the end of the experiment
Source text: Floxed Erbb4 mice (Erbb4^f/f; C57BL/6N; 129-Erbb4tm1Fej/Mmucd, MMRRC, #010439-UCD) were crossed with CAGGCre-ER^TM mice (Jackson Laboratory, 004682) containing the Tg(CAG-cre/Esr1*)5Amc transgene that expresses Cre recombinase under the control of a chicken beta actin promoter/enhancer coupled to the human cytomegalovirus immediate-early gene enhancer, resulting in expression of tamoxifen-inducible Cre-ERT in most cell types. To induce Cre recombinase-mediated deletion of Erbb4, eleven-week-old female and male iCAGGCre-ER^TM/Erbb4^f/f mice were intraperitoneally injected with tamoxifen (Merck, T5648; 10 mg/kg; in corn oil) daily for 5 consecutive days.
Statistical analysis was performed using GraphPad Prism version 10. Data are presented as the mean value of biological replicates (unless stated otherwise) ± SD. Data was checked for normality using the Shapiro–Wilk normality test. […]
Supplementary Figure 6. […] (a) Representative images of Masson’s trichrome staining of AngII-induced myocardial fibrosis following treatment with NA-1 and corresponding graphs showing the quantitation for total and perivascular fibrosis in male mice (n=5 male mice in Ctrl and AngII/Veh group, n=4 male mice in AngII/NA-1 group). […]

HCFs = assay: In vitro collagen expression: COL3A1 mRNA in HCFs stimulated with TGF-β1; assay type: cell-based, human
Protocol: HCFs were seeded at a density of 1.5 ×10^5 cells/well in doxycycline-free medium in 12-well plates (Greiner Bio-One, 665180) and incubated overnight. […] Compounds were pre-incubated for 10 min before addition of TGF-β1.
RNA was extracted using Nucleospin RNA XS (Macherey-Nagel, 740902.50) according to the manufacturer’s instructions. For cDNA synthesis, total RNA was added to a mixture containing buffer with random hexamers and reverse transcriptase enzyme (TaqMan reverse transcription reagents, Applied biosystems, N8080234) after which samples were incubated for 10 min at 25 °C, 30 min at 48 °C, and 5 min at 95 °C. RT-qPCR was performed on QuantStudio 3 Real-time PCR system (Applied Biosystems) using Taqman Universal PCR Master Mix (Applied Biosystems, 4304437) and Taqman primers according to the manufacturer’s instructions. Settings were as follows: […] followed by 10 min at 95 °C, 40 cycles (45 cycles for ERBB4) of denaturation at 95 °C for 15 s, and 1 min at 60 °C. All reactions were run in duplicate, and all data were normalized against housekeeping genes glyceraldehyde-3-phosphate dehydrogenase (GAPDH), beta-actin (ACTB), or phosphoglycerate kinase 1 (PGK1). Expression levels were calculated using the comparative cycle method and expressed as fold change (FC) to appropriate controls. The following TaqMan primers were used (Thermo Fisher Scientific): GAPDH (Hs02758991_g1, Mm99999915_g1 and Rn01775763_g1), PGK1 (Hs99999906_m1), ID2 (Hs04187239_m1), BMPR1B (Hs01010965_m1), CACNA2D4 (Hs00297782_m1), DUSP2 (Hs00358879_m1), NR4A1 (Hs00374226_m1), SGK1 (Hs00178612_m1), COL1A1 (Mm00801666_g1), COL3A1 (Hs00943809_m1 and Mm00802305_g1), ERBB4 (Hs00955525_m1 and Rn00572447_m1), ACTB (Mm02619580_g1) and ANP (Mm01255747_g1).

Row | Substance | Survival probability in AngII-treated Erbb4-null mice (Erbb4-null mice; 1000 ng/kg AngII, Erbb4-null mice, individual animals) | mortality in Erbb4-null mice (Erbb4-null mice; AngII dose of 1000 ng/kg/day) | increase of COL3A1 mRNA levels in HCFs (HCFs; TGF-β1 10 ng/mL) | COL3A1 mRNA expression (FC), HCF validation TGFβ (HCFs; TGFβ vs Vehicle, single replicates)
1 | angiotensin II (DRVYIHPF; Angiotensin-2; UniProt P01019 25-32, looked up) [AngII, inducer of hypertrophy in iAMs and of myocardial fibrosis in mice] | 1 and 0 | 80% |  | 
2 | transforming growth factor β1 [TGF-β1, reference compound] |  |  | 36% | 1.323 and 1.4 and 1.364
